Like-named read-outs stand apart in the source and are kept apart here. Where no end group is shown, it is not given here. [ ]: non-standard residue; d: D form. hLeu = CC(C)CC[C@H](N)C(=O)O; βAla = NCCC(=O)O
T1: erythropoietin receptor, human recombinant (NSO cells) (human) (UniProt P19235)
T1 sequence (looked up): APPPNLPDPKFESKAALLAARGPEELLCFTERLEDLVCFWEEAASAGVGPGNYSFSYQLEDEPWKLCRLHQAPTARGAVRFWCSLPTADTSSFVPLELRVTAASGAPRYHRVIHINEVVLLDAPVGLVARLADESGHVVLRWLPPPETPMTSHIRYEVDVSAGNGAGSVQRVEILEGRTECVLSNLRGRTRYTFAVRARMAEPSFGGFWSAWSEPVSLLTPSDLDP

T2: erythropoietin receptor, human recombinant (NSO cells) (human, UniProt P19235 25-250, limits assumed)
T2 construct: also called EPOR; EPO receptor
T2 sequence (looked up): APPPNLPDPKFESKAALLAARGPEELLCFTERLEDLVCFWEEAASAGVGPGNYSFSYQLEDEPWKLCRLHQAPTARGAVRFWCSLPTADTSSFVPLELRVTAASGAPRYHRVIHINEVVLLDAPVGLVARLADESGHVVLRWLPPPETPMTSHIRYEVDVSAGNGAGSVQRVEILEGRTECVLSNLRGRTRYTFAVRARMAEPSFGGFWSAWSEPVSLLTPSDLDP


Legend:
Assay in all cases: radioligand binding, displacement of [125I]EPO
[1] = biological target: T1, erythropoietin receptor, human recombinant (NSO cells) (human)
[2] = biological target: T2, erythropoietin receptor, human …
[3] = biological target: T2, erythropoietin receptor, human …; remark: listed apart in the source
[4] = biological target: T2, erythropoietin receptor, human …; remark: listed apart in the source

Ki [1] [nM]	IC50 [2] [nM]	Ki [2] [nM]	Ki (AC-0005-002)/Ki [2]	Binder	also measured
23				Ac-NYLRM[hLeu]WVRP (peptide, part only; not given: Bridge, linker and tail moieties, not shown: small tags and cut ends, also: two linked chains, linker and second chain not given here) [EPO mimetic 9. (N-End AcNYL, Loop RMhomoLWV, Mid RP)]	
44				Ac-NYLRMGWVRP (peptide, part only; not given: Bridge, linker and tail moieties, not shown: small tags and cut ends, also: two linked chains, linker and second chain not given here) [EPO mimetic 4. (N-End AcNYL, Loop RMGWV, Mid RP)]	
17				Ac-NYLRMFWVRP (peptide, part only; not given: Bridge, linker and tail moieties, not shown: small tags and cut ends, also: two linked chains, linker and second chain not given here) [EPO mimetic 6. (N-End AcNYL, Loop RMFWV, Mid RP)]	
34				Ac-NYLRMLWVRP (peptide, part only; not given: Bridge, linker and tail moieties, not shown: small tags and cut ends, also: two linked chains, linker and second chain not given here) [EPO mimetic 8. (N-End AcNYL, Loop RMLWV, Mid RP)]	
9.6				[DesaminoY]LRMPWVKP (peptide, part only; not given: Bridge, linker and tail moieties, not shown: small tags and cut ends, also: two linked chains, linker and second chain not given here) [EPO mimetic 15. (N-End Desamino YL, Loop RMPWV, Mid KP)]	

Further lines, the binder ahead of its results:

Binder	Ki [1] [nM]	IC50 [2] [nM]	Ki [2] [nM]	Ki (AC-0005-002)/Ki [2]	also measured
Ac-NYLRMGWVKP (peptide, part only; not given: Bridge, linker and tail moieties, not shown: small tags and cut ends, also: two linked chains, linker and second chain not given here) [EPO mimetic 2. (N-End AcNYL, Loop RMGWV, Mid KP)]	22				
GGNYLCRMGPITWVCKPQGG (not fully specified; cysteine pairing not given here, Structure only as drawing CHEM-US-00003; also called compound 001) [AC-0005-001]		1300	615	6.3	
Ac-NYLRM[βAla]WVKP (peptide, part only; not given: Bridge, linker and tail moieties, not shown: small tags and cut ends, also: two linked chains, linker and second chain not given here) [EPO mimetic 3. (N-End AcNYL, Loop RMβAWV, Mid KP)]	27				
NYLCRMGPITWVCKP (not fully specified; cysteine pairing not given here, Structure only as drawing CHEM-US-00005; also called compound 003; Control 2: AC-0005-003) [AC-0005-003]		119	56	69	IC50 [3]: 171 nM; Ki [3]: 81 nM; Ki (AC-0005-002)/Ki [3]: 48; IC50 [4]: 164 nM; Ki [4]: 78 nM; Ki (AC-0005-002)/Ki [4]: 0.041
LYACHMGPITAVCQP (not fully specified; cysteine pairing not given here, Structure only as drawing CHEM-US-00006; also called compound 004) [AC-0005-004]		265	126	31	
GGLYACHMGPITAVCQPQGG (not fully specified; cysteine pairing not given here, Structure only as drawing CHEM-US-00004; also called compound 002) [AC-0005-002]		8170	3870	1	

Source: patent US20170029481A1 (EPODOSE, published 2017)
